In the supplement of paper PMC9170038:

System: K4 kissing-loop RNA reporter
Assay: apparent KD of K4 kissing-loop reporter; higher = weaker reporter binding
Settings: Eterna round: R107; input ligand: none
Method: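 RNA-MaP round R107: designed RNA switches with theophylline, tryptophan, arginine or FMN aptamers are transcribed on-chip within common flanks. They are titrated with a labelled K4 kissing-loop RNA reporter in RNA-MaP buffer (100 mM Tris pH 7.5, 80 mM KCl, 4 mM MgCl2), without ligand or with the indicated ligand. Median apparent KD per design.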
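Note: bound reporter read as fluorescence of individual clusters on recovered sequencing chips by microscopy, with normalized cluster intensities fitted with a binding model.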

First: UGAUAAAGCAGUGAUGUUGCAAGUAAUGAUACCAGUUAAGAAGAGAACCCUUGGCAGCAUAAAGUGCGCUCUGAUGAGUGUGCUU [whbob_SS_Theo_A_w52]
Second: UGAUACCAGACGGCCGCCACUCCUGCAAGUCAAAGACUUGCUAAAAGGAUCGUCCAGUGAUGUUGGAGGACCGGGUCUGGUAUCU [TrypBX 19 #SwitchBubble #Palindromic #StaticStem]
The “apparent KD of K4 kissing-loop reporter” value of the first is 6.7-fold lower: 111 nM for the first, 744 nM for the second.

“GCUCAGGAGUGAUGUUCCUAGUGAUGUUAACGAGGACCGGUACGGCCGCCACUCGAUACGGCCGGACCGUAGGAUAAACUAGAGC [Same State - Tryptophan A (Freestyle 10)]” and “UCUCGGGCCAGUGAUGUUGGCGGCUAGUGGCGAGGACCGGUACGGCCGCCACUCGGCGCAGCAGCGGAGUGAUGUUUCGUGAGUA [Same State Tryptophan A GF 17]” are within 1.5-fold of each other in “apparent KD of K4 kissing-loop reporter” value: 261 nM for the first, 377 nM for the second.

Going from “AAACGUUGGUGCGAUACCAGCUUGAUCGGUAAACGAUCUACUGGAGUGAUGUUCCUAAAUAGCCCUUGGCAGCGCACCGACGAAA [MAT - Same State Theophlline B - Mod of Eli - D8]” to “AGUCCGCUCCAAGGAUAUAGUCCGGCUGCGCGUCAGUGAUGUUGAAGAAGUAUCGCGUCUCUAUAGCUAGAAGGUGGCGCAAUUG [theeternabot_sameState_KL_FMN_B_20]”, the “apparent KD of K4 kissing-loop reporter” value rises from 169 nM to 989 nM (5.9-fold).

“UUUAGGAGCGGUGUUGAUUAGGGAGCGGAAGGAGCGCCGAUUAUGGCAGGUAGGUCGCCGGAAUGUAGUGAUGUUGCAUAGAGGG [ExArgA.V]” and “UAUAGACAAGUGAUGUUUGUCAUAUCCGAAGGAGCGUCUUCUAAGACAGGUAGGUCGCGGAUUAAUUUUGUUAUGAUACUAUUUA [JR_SSArginiA_Sub016]” are within 1.5-fold of each other in “apparent KD of K4 kissing-loop reporter” value: 185 nM for the first, 126 nM for the second.

Going from “UUGAGUGAUGUUCAAUUAAUGUGCAACGAUACCAGCUCAUAUGCUAGCCCUUGGCAGCGUGGUAACGUAAUUUUAUCAAAUGAUA [theeternabot_exclusion_KL_Theo_A_39]” to “GGUUAGUGAUGUUGAUCAAAUCGCGGUGAUACCAGCAACACAUCGUGCCCUUGGCAGCACGGCAAAAUGAAUGCGGUCGAAUGCG [theeternabot_exclusion_KL_Theo_A_19]”, the “apparent KD of K4 kissing-loop reporter” value rises from 198 nM to 546 nM (2.8-fold).

“UCCUGCAAUCUGCCACGAAAGUGGGUUGAUACCAGAGUCGAAAGACUCCCUUGGCAGCGAGUGAUGUUCGUUGCAGGUGAAUAAA [MatMod 9 - Jieux - Exclusion - Theophylline A]” and “GUCCCGAGUGAUGUUCGGGUCGUUCGGGAAGGAGCGCCCGGAAGGGCAGGUAGGUCGCCCGGAUCCCUCAGGUAACUGAGGGACC [#2 Same State - Arginine A Attempt #25 (HarryS)]” are within 1.5-fold of each other in “apparent KD of K4 kissing-loop reporter” value: 444 nM for the first, 553 nM for the second.

Going from “AAUGUAUGGCACAUGAGUGAUGUUCAUGUCCGAGGACCGGUACGGCCGCCACUCGGUCCUGGGUUCUUAUUACUAUACAUUAAUG [KL-XTryp-A2 #analogue]” to “GCCGUACGCAUGGAUACCAGAUGGCACUAUUUUCUCCCAGAGUGAUGUUCUGGCCUGCCUAUCCCUUGGCAGCCAUGCGUACGGC”, the “apparent KD of K4 kissing-loop reporter” value rises from 149 nM to 800 nM (5.4-fold).

First: AGAUUCGACACGGCCGCCACUUCCAGUGGCUGGUGUCAUGGUGCACGUGAGUGAUGUUUAUGUGGAAGGACCGGGUGUUGAGUCU [KL-XTryp-B2 #analogue]
Second: AAACGUUGGUGCGAUACCAGCUGAUCGGAAACGAUCUUGCUGGAGUGAUGUUCCAAGUAAAGCCCUUGGCAGCGCACCGACGAAA [MAT - Same State Theophlline B - Mod of Eli - D22]
The “apparent KD of K4 kissing-loop reporter” value of the first is 7.7-fold higher: 670 nM for the first, 86.5 nM for the second.

First: AGGCCCGGCCGAAAGGCCGGGCCAAGAGAUACCAGCAGCGAAAGCUGCCCUUGGCAGCUCACUUAGUGAUGUUAAGAAUAGAACA [SS Theo A Tesla 1]
Second: UUGUCCGGGUGAUGGUCAUCACGUGGCGGGCGAGGACCGGUACGGCCGCCACUCGACUUUGCAGUGAUGUUGCAAACCGGACAAU [Exclusion - Tryptophan A (Freestyle 23)]
The “apparent KD of K4 kissing-loop reporter” value of the first is 2-fold higher: 375 nM for the first, 192 nM for the second.

Going from “AUUUAAUGUAUAGAUUAUAUACAUUAUUCAGAGGAUAUGCAUUGAAGCAGAAGGCUGGGUGUAGUGAUGUUGCAAUUUUAAUUUA [whbob_SS_FMNA__2th172]” to “GUGCGGCUAGUGAUGUUGGUUGUGUGGGAAGGAGCGCAGAUUCAUGCAGGUAGGUCGCCCACACGUCUGAAAGGAUGAUAAUUCA [#12 K4 Arginine A Same State]”, the “apparent KD of K4 kissing-loop reporter” value rises from 159 nM to 354 nM (2.2-fold).

“GACGGGUUCCUGCUCAAUCCGUCGCAUGAUCGAGGACCGGUACGGCCGCCACUCGAGGCCAUGCCGUACGAGUGAUGUUCGUGCG [Xeon]” was tested, and the “apparent KD of K4 kissing-loop reporter” value was 403 nM.

Same assay, conditions: Eterna round: R107; input ligand: theophylline 20 uM

Compared with “AUGGUUGUCGUAGGAUAUGUAGGUAAUUCCUAUAGCAGUGAUGUUGCUAAUAUCUUGGAAGAAGGAACAGAAGGACGAUAACCAC [KL-SSFMN-B1 #analogue]”, “AGGCCACACAGCGAGUGAUGUUUGCGUUAUCGAGGACCGGUACGGCCGCCACUCGGCCUUUAGCGCCUUACCAAUUAGGUGUUGC [theeternabot_sameState_KL_Trp_A_46]” is 5.1-fold higher in “apparent KD of K4 kissing-loop reporter” value: 109 nM for the first, 556 nM for the second.

Compared with “UAUAUACAUUUAUUAAUUAAAGGUUCAGAAGGAGCGUGAAUUAACACAGGUAGGUCGCUGAGCGAGUGAUGUUCGCUAUAUGGAA [JR_ExcArginiA_Sub006]”, “UCGGUAUAGUGAUGUUAUAUAGAGAGUGAUACCAGUUUAGAGAGAAACCCUUGGCAGCAUAGAAGAGUAUCAUUGGAGGAGGAGG [#20 K4 Theophylline A Exclusion]” is 4.1-fold higher in “apparent KD of K4 kissing-loop reporter” value: 81 nM for the first, 336 nM for the second.

For “UGAUACCAGACGGCCGCCACUGGUGCAUGUCAAAGACAUGCUAACCAAAUCGUGGAGUGAUGUUCCAGGACCGGGUCUGGUAUCU [TrypBX 22 #SwitchBubble #Palindromic #StaticStem]”, the “apparent KD of K4 kissing-loop reporter” value was 239 nM.
